“And” between values parts separate entries of the source, which are not always exact repeats. Equal values may be shown once.
biological target: human CD40 (human, UniProt P25942 21-277); experiment: cell-based or functional assay
Sequence (P25942 21-277 limits assumed): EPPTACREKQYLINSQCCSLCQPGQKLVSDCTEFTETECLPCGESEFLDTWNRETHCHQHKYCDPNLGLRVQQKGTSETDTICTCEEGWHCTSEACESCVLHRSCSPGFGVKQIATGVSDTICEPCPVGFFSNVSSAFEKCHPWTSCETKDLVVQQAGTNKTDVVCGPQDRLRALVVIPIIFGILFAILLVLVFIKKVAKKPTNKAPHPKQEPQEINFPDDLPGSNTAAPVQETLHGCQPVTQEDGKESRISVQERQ

Binder	hIZCD40L-driven Human B Cell Proliferation EC50	CHO-hCD40L-driven DC Activation IL-12 EC50	CHO-hCD40L-driven Human B Cell Proliferation EC50	T-B cell MLR EC50
BMS3h-38-1 (other) VH: EVQLLGSGGGLVQPGGSLRLSCAASGFTFEEEEMIWVRQAPGKGLEWVSAISGSGGSTYYADSVKGRFTISRDNSKNTLYLQMNSLRAEDTAVYYCSKEPFRFDYWGQGTLVTVSS	142 nM			
BMS3h-38-205 (other) VH: EVQLLASGGGLVQPGGSLRLSCAASGFTFFAAEMIWVRQAPGKGLEWVSAISGSGGSTYYADSVKGRFTISRDNSKNTLYLQMNSLRAEDTAVYYCGKEPFRYDYWGQGTLVTVSS	4 nM	29 nM	1100 nM	
BMS3h-38-217 (other) VH: EVQLLASGGGLVQPGGSLRLSCAASGFTFEEEEMIWVRQAPGKGLEWVSAISRRGYSTYYADSVKGRFTISRDNSKNTLYLQMNSLRAEDTAVYYCGKEPFRYDYWGQGTLVTVSS	0.8 nM	1.7 nM	34 nM	74 nM
BMS3h-38-201 (other) VH: EVQLLASGGGLVQPGGSLRLSCAASGFTFEEEEMIWVRQAPGKGLEWVSAISGSGGSTYYADSVKGRFTISRDNSKNTLYLQMNSLRAEDTAVYYCGKEPFYYDYWGQGTLVTVSS	> 70 nM	> 800 nM	> 7000 nM	
BMS3h-38-219 (other) VH: EVQLLASGGGLVQPGGSLRLSCAASGFTFEEEEMIWVRQAPGKGLEWVSSISRSGGSTYYADSVKGRFTISRDNSKNTLYLQMNSLRAEDTAVYYCGKEPFRYDYWGQGTLVTVSS	2 nM	9 nM	93 nM	164 nM
BMS3h-38-215 (other) VH: EVQLLASGGGLVQPGGSLRLSCAASGFTFEEEEMIWVRQAPGKGLEWVSAISGLGWSTYYADSVKGRFTISRDNSKNTLYLQMNSLRAEDTAVYYCGKEPFRYDYWGQGTLVTVSS	1 nM	6 nM	65 nM	163 nM
BMS3h-38-211 (other) VH: EVQLLASGGGLVQPGGSLRLSCAASGFTFEEEEMIWVRQAPGKGLEWVSAISRQGGSTYYADSVKGRFTISRDNSKNTLYLQMNSLRAEDTAVYYCGKEPFRYDYWGQGTLVTVSS	2 nM	18 nM	82 nM	200 nM
BMS3h-37-213 (other) VH: EVQLLESGGGLVQPGGSLRLSCAASGFTFEWYEMQWVRRAPGKGLEWVSAISGDGYRTYYADSVKGRFTISRDNSKNTLYLQMNSLRAEDTAVYYCAKELLFFDYRGRGTLVTVSS	0.7 nM			
BMS3h-37-11 (other) VH: EVQLLESGGGLVQPGGSLRLSCAASGFTFEWYEMQWVRKAPGKGLEWVSAISGDGYRTYYADSVKGRFTISRDNSKNTLYLQMNSLRAEDTAVYYCAKELGYFDYRGRGTLVTVSS	8 nM			

Next, values leading:

hIZCD40L-driven Human B Cell Proliferation EC50	CHO-hCD40L-driven DC Activation IL-12 EC50	CHO-hCD40L-driven Human B Cell Proliferation EC50	T-B cell MLR EC50	Binder
0.7 nM				BMS3h-38-228 (other) VH: EVQLLASGGGLVQPGGSLRLSCAASGFTFEEEEMIWVRQAPGKGLEWVSAISRNGFSTYYADSVKGRFTISRDNSKNTLYLQMNSLRAEDTAVYYCGKEPFRYDYWGQGTLVTVSS
0.66 nM				BMS3h-38-231 (other) VH: EVQLLASGGGLVQPGGSLRLSCAASGFPFEEEEMIWVRQAPGKGLEWVSAISRQGWSTYYADSVKGRFTISRDNSKNTLYLQMNSLRAEDTAVYYCGKEPFRYDYWGQGTLVTVSS

biological target: T1, human CD40 (BMS, CY24FEB06-01) (human, UniProt P25942 21-193); experiment: ELISA RBA, competition with IZ-CD40L for soluble human CD40;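 further: Neutravidin-coated 384-well plates, dAb–human CD40 complex incubated 2 h at room temperature, read-out as absorbance at 450 nm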
T1 construct: Soluble human CD40 reagent of the ELISA RBA
T1 sequence (P25942 21-193 limits assumed): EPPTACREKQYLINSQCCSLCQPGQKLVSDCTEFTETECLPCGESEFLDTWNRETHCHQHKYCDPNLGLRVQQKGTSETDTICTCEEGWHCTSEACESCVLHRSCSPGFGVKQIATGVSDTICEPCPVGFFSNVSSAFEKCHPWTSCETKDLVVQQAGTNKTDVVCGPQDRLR
Experimental: Clear walled High Bind, 384-well plates (Corning, UK) were coated with 25 μl of 1 μg/ml Neutravidin in 0.2 M carbonate-bicarbonate buffer, pH 9.4 overnight at 4° C. The following day, assay plates were washed with 0.1% (v/v) Tween PBS buffer, blocked with 1% (w/v) BSA in PBS for 1 hour at room temperature and washed again. […] Following washing of the assay plate, the dAb:human CD40 complex was incubated in the assay plate at room temperature for 2 hours with gentle agitation. […] Absorbance signal was measured using a SpectraMax® M5e plate reader (Molecular Devices) at 450 nm following neutralization with 1M HCl solution.

Binder	EC50
BMS3h-56-246 (other, domain antibody (dAb): single human VH domain) VH: EVQLLESGGGLVQPGGSLRLSCAASGFTFRDYEMWWVRQAPGKGLERVSAINPWGTLTYYADSVKGRFTISRDNSKNTLYLQMNSLRAEDTAVYYCAKLPFTFEDWGQGTLVTVSS	11.1 nM
BMS3h-37-205 (other, domain antibody (dAb): single human VH domain) VH: EVQLLESGGGLVQPGGSLRLSCAASGFTFEWYEMQWVRRAPGKGLEWVSAISGDGYRTYYADSVKGRFTISRDNSKNTLYLQMNSLRAEDTAVYYCAKELEYFDYWGRGTLVTVSS	3.1 nM and 4.4 nM
BMS3h-37-207 (other, domain antibody (dAb): single human VH domain) VH: EVQLLESGGGLVQPGGSLRLSCAASGFTFEWYEMQWVRRAPGKGLEWVSAISGDGYRTYYADSVKGRFTISRDNSKNTLYLQMNSLRAEDTAVYYCAKELAFFDYWGRGTLVTVSS	2.5 nM and 6.6 nM
BMS3h-37-212 (other, domain antibody (dAb): single human VH domain) VH: EVQLLESGGGLVRPGGSLRLSCAASGFTFEWYEMQWVRRAPGKGLEWVSAISGDGYRTYYADSVKGRFTISRDNSKNTLYLQMNSLRAEDTAVYYCAKELEFFDYWGRGTLVTVSS	24 nM
BMS3h-37-206 (other, domain antibody (dAb): single human VH domain) VH: EVQLLESGGGLVQPGGSLRLSCAASGFTFEWYEMQWVRRAPGKGLEWVSAISGDGYRTYYADSVKGRFTISRDNSKNTLYLQMNSLRAEDTAVYYCAKGLEYFDYWGRGTLVTVSS	3.2 nM and 8.9 nM
BMS3h-37-213 (other, domain antibody (dAb): single human VH domain) VH: EVQLLESGGGLVQPGGSLRLSCAASGFTFEWYEMQWVRRAPGKGLEWVSAISGDGYRTYYADSVKGRFTISRDNSKNTLYLQMNSLRAEDTAVYYCAKELLFFDYRGRGTLVTVSS	16 nM

Second part, the binder after the results:

EC50	Binder
6 nM	BMS3h-56-244 (other, domain antibody (dAb): single human VH domain) VH: EVQLLESGGGLVQPGGSLRLSCAASGFTFRDYEMWWVRQAPGKGLERVSAINPWGGLTYYADSVKGRFTISRDNSKNTLYLQMNSLRAEDTAVYYCAKLPFTFDDWGQGTLVTVSS
4.2 nM	BMS3h-56-220 (other, domain antibody (dAb): single human VH domain) VH: EVQLLESGGGLVQPGGSLRLSCAASGFTFRDYEMWWVRQAPGKGLERVSAINPYGGLTYYADSVKGRFTISRDNSKNTLYLQMNSLRAEDTAVYYCAKLPFTFDDWGQGTLVTVSS
1.3 nM	BMS3h-56-253 (other, domain antibody (dAb): single human VH domain) VH: EVQLLESGGGLVQPGGSLRLSCAASGFTFRDYEMWWVRQAPGKGLERVSAINPAGGYTYYADSVKGRFTISRDNSKNTLYLQMNSLRAEDTAVYHCAKLPFTFEDWGQGTLVTVSS
2.1 nM and 4.2 nM	BMS3h-56-224 (other, domain antibody (dAb): single human VH domain) VH: EVQLLESGGGLVQPGGSLRLSCAASGFTFRDYEMWWVRQAPGKGLERVSAINPWGQLTYYADSVKGRFTISRDNSKNTLYLQMNSLRAEDTAVYYCAKLPFTFEDWGQGTLVTVSS
2.7 nM	BMS3h-56-239 (other, domain antibody (dAb): single human VH domain) VH: EVQLLESGGGLVQPGGSLRLSCAASGFTFRDYEMWWVRQAPGKGLERVSAINPWGSLTYYADSVKGRFTISRDNSKNTLYLQMNSLRAEDTAVYYCAKLPFTFDDWGQGTLVTVSS
2.8 nM and 3.7 nM	BMS3h-56-232 (other, domain antibody (dAb): single human VH domain) VH: EVQLLESGGGLVQPGGSLRLSCAASGFTFRDYEMWWVRQAPGKGLERVSAINPWGSHTYYADSVKGRFTISRDNSKNTLYLQMNSLRAEDTAVYYCAKLPFTFDDWGQGTLVTVSS
5 nM	BMS3h-56-223 (other, domain antibody (dAb): single human VH domain) VH: EVQLLESGGGLVQPGGSLRLSCAASGFTFRDYEMWWVRQAPGRGLERVSAINPPGMLTYYADSVKGRFTISRDNSKNTLYLQMNSLRAEDTAVYYCAKLPFTFDDWGQGTLVTVSS
2.9 nM	BMS3h-56-225 (other, domain antibody (dAb): single human VH domain) VH: EVQLLESGGGLVQPGGSLRLSCAASGFTFRDYEMWWVRQAPGKGLERVSAINPWGGYTYYADSVKGRFTISRDNSKNTLYLQMNSLRAEDTAVYYCAKLPFTFDDWGQGTLVTVSS
7.3 nM	BMS3h-56-207 (other, domain antibody (dAb): single human VH domain) VH: EVQLLESGGGLVQPGGSLRLSCAASGFTFRDYEMWWVRQAPGKGLERVSAINPQGTRTYYADSVKGRFTISRDNSKNTLYLQMNSLRAEDTAVYYCAKLPFPFSEWGQGTLVTVSS
4.1 nM	BMS3h-56-229 (other, domain antibody (dAb): single human VH domain) VH: EVQLLESGGGLVQPGGSLRLSCAASGFTFRDYEMWWVRQAPGKGLERVSAINPYGSLTYYADSVKGRFTISRDNSKNTLYLQMNSLRAEDTAVYYCAKLPFTFDDWGQGTLVTVSS
9.9 nM	BMS3h-56-243 (other, domain antibody (dAb): single human VH domain) VH: EVQLLESGGGLVQPGGSLRLSCAASGFTFRDYEMWWVRQAPGKGLERVSAINPWGGFTYYADSVKGRFTISRDNSKNTLYLQMNSLRAEDTAVYYCAKLPFTFEDWGQGTLVTVSS
9 nM	BMS3h-56-205 (other, domain antibody (dAb): single human VH domain) VH: EVQLLESGGGLVQPGGSLRLSCAASGFTFRDYEMWWVRQAPGKGLERVSAINPQGTRTYYADSVKGRFTISRDNSKNTLYLQMNSLRAEDTAVYYCAKLPFYFSEWGQGTLVTVSS
0.7 nM	BMS3h-56-248 (other, domain antibody (dAb): single human VH domain) VH: EVQLLESGGGLVQPGGSLRLSCAASGFTFRDYEMWWVRQAPGKGLERVSAINPYGNLTYYADSVKGRFTISRDNSKNTLYLQMNSLRAEDTAVYYCAKLPFTFDDWGQGTLVTVSS
4.5 nM	BMS3h-56-204 (other, domain antibody (dAb): single human VH domain) VH: EVQLLESGGGLVQPGGSLRLSCAASGFTFRDYEMWWVRQAPGKGLERVSAINPQGTRTYYADSVKGRFTISRDNSKNTLYLQMNSLRAEDTAVYYCAKLPTYFKDWGQGTLVTVSS
5.1 nM	BMS3h-38-238 (other, domain antibody (dAb): single human VH domain) VH: EVQLLASGGGLVQPGGSLRLSCAASGFTFEEEEMIWVRQAPGKGLEWVSAISRSGYSTYYADSVKGRFTISRDNSKNTLYLQMNSLRAEDTAVYYCGKEPFRYDYWGQGTLVTVSS

Source: patent US20200199244A1 (published 2020)
